Laboratory results reported in publication PMC11853025.

How the values were obtained:
[1] = target: iC3b (UniProt P01024); test: SPR; C3b deposited on a CM5 chip (amine-coupled seed, then convertase-mediated deposition to about 5000 RU), iC3b and C3dg made from it on the chip; αI domains injected as dilution series, 120 s; Biacore T200, 25 °C; HBST (10 mM HEPES, 150 mM NaCl, 0.005% Tween-20, pH 7.4) with 1 mM MgCl2; Langmuir 1:1 fit, KD calculated
[2] = target: iC3b (UniProt P01024); test: SPR; competitive: αI domains at 5 µM preincubated with simvastatin (3-100 µM), injected over immobilised iC3b or ICAM-1; HBST with 1 mM MgCl2 and 5% DMSO; signal as percent of the non-inhibited signal
[3] = target: ICAM-1 (recombinant, Sino Biological 10346-H03H) (UniProt P05362); test: as above
Chain of ICAM-1 (recombinant, Sino Biological 10346-H03H) (P05362 28-480): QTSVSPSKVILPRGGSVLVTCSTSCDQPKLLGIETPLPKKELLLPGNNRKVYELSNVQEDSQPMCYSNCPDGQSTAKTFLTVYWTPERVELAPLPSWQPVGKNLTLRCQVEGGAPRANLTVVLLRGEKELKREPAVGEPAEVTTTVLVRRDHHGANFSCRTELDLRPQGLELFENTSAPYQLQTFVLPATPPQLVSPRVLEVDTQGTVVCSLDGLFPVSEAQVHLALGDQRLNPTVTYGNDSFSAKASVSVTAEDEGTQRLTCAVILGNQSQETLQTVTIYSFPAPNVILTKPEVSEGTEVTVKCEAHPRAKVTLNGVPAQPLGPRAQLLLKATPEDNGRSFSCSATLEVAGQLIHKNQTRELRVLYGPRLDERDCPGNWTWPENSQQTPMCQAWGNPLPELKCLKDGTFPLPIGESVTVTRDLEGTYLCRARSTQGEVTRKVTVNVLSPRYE

Row | Substance | Kd [1] [µM] | residual binding activity with simvastatin (percent of the non-inhibited signal) [2] [%] | residual binding activity with simvastatin (percent of the non-inhibited signal) [3] [%]
1 | CR3 αMI domain, high-affinity (HA) variant p.I332G (from UniProt P11215 146-334) (domain or fragment) | 1.8 | 77 | –
2 | CR3 αMI domain, wild type (WT) (from UniProt P11215 146-334) (domain or fragment) | 15 | – | –
3 | LFA-1 αLI domain, high-affinity (HA) variant p.K312C/K319C (domain or fragment) | – | – | 83
